The results in this text go back to PMC11838001.

The test addresses E-cadherin (human (endogenous in NHEK)). Nature of the test: FRET or BRET; FLIM-FRET in fixed, permeabilized NHEK cells, untreated or treated with 6 μM CHIR99021 for 48 hours; β-catenin labelled by antibodies as donor (Alexa Fluor 488), E-cadherin as acceptor (Alexa Fluor 555); FRET efficiency from regions at cell-cell junctions, dual exponential fit. In general terms: Bioluminescence resonance energy transfer reports proximity on the nanometre scale.

Sequence of E-cadherin (human (endogenous in NHEK)) (P12830 23-882): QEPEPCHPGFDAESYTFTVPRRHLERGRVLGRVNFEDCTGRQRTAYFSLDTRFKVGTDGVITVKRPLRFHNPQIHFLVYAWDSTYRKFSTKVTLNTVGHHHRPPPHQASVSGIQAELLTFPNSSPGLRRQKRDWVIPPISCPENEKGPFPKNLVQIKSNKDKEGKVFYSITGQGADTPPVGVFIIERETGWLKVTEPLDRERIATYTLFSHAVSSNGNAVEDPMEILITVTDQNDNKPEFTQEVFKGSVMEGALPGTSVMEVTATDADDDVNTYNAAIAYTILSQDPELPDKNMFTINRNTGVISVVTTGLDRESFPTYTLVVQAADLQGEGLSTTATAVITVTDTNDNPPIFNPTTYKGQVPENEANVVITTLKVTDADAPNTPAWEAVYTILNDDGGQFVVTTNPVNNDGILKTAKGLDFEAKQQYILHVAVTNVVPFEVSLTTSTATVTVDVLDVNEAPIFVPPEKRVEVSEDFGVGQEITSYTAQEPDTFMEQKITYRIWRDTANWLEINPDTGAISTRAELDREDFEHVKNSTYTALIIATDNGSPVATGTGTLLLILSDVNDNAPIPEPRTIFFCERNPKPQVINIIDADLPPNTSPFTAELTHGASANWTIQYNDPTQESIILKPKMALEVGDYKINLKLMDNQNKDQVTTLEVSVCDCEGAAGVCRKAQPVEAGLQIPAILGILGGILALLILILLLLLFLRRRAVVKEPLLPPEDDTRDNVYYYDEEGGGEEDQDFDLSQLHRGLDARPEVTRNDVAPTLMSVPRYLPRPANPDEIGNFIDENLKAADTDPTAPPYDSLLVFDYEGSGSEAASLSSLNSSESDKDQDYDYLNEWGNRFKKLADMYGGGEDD
Sequence of β-catenin (P35222 whole entry): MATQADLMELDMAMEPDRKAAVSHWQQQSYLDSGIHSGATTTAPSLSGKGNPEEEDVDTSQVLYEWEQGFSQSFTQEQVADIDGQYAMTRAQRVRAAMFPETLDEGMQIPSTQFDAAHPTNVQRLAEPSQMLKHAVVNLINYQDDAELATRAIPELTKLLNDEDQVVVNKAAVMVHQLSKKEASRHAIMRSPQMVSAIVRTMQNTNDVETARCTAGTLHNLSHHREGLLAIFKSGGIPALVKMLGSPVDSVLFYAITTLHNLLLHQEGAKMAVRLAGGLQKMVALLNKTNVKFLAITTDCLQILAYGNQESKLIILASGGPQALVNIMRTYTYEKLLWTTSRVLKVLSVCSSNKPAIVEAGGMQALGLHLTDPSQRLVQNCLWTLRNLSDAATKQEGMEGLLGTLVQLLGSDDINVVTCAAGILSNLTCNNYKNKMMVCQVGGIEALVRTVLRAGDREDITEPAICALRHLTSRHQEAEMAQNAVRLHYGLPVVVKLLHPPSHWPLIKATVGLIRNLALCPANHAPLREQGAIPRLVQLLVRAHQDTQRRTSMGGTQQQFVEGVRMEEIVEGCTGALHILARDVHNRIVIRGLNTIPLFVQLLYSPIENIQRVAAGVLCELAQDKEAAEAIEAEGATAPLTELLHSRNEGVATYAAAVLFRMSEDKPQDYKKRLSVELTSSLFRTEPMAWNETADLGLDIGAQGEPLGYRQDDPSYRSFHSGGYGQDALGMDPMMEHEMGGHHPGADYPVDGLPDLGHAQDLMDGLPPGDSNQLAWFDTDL

On to “β-catenin (from UniProt P35222 1-781) (natural protein)”, for which the fold change of FRET efficiency, CHIR-treated against untreated cells was 3 fold.
